# Results: patent US20090163411A1 (BOLDER BIOTECHNOLOGY, published 2009)
# Target: Recombinant Human Vascular Endothelial Growth Factor (rhVEGF) (human, UniProt P15692-4 27-191, limits assumed)
# Assay: cell-based or functional assay
# Sequence of Recombinant Human Vascular Endothelial Growth Factor (rhVEGF) (P15692 other isoform, or with tags, fused parts or gaps limits assumed): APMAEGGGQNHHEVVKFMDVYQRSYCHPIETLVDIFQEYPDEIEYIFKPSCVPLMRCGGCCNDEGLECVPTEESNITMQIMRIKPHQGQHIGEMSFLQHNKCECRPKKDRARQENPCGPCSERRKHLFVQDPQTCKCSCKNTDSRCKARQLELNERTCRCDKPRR
row,Binder,"Ave Ec50's (ng/ml); inhibition of VEGF-stimulated HUVEC proliferation, BrdU Cell Proliferation assay [ng/mL]"
1,sFlt-1(3) G26C (receptor) CSKLKDPELSLKGTQHIMQAGQTLHLQCRGEAAHKWSLPEMVSKESERLSITKSACGRNGKQFCSTLTLNTAQANHTGFYSCKYLAVPTSKKKETESAIYIFISDTGRPFVEMYSEIPEIIHMTEGRELVIPCRVTSPNITVTLKKFPLDTLIPDGKRIIWDSRKGFIISNATYKEIGLLTCEATVNGHLYKTNYLTHRQTNTIIDVQISTPRPVKLLRGHTLVLNCTATTPLNTRVQMTWSYPDEKNKRASVRRRIDQSNSHANIFYSVLTIDKMQNKDKGLYTCRVRSGPSFKSVNTSVHIYDKAFITVKH,43
2,"20 kDa-Cys-Flt-1(3) G26C (receptor, 20 kDa maleimide-PEG on Cys 26) CSKLKDPELSLKGTQHIMQAGQTLHLQCRGEAAHKWSLPEMVSKESERLSITKSACGRNGKQFCSTLTLNTAQANHTGFYSCKYLAVPTSKKKETESAIYIFISDTGRPFVEMYSEIPEIIHMTEGRELVIPCRVTSPNITVTLKKFPLDTLIPDGKRIIWDSRKGFIISNATYKEIGLLTCEATVNGHLYKTNYLTHRQTNTIIDVQISTPRPVKLLRGHTLVLNCTATTPLNTRVQMTWSYPDEKNKRASVRRRIDQSNSHANIFYSVLTIDKMQNKDKGLYTCRVRSGPSFKSVNTSVHIYDKAFITVKH",54
3,"20 kDa-Cys-Flt-1(3) D31C (receptor, 20 kDa maleimide-PEG on Cys 31) SKLKCPELSLKGTQHIMQAGQTLHLQCRGEAAHKWSLPEMVSKESERLSITKSACGRNGKQFCSTLTLNTAQANHTGFYSCKYLAVPTSKKKETESAIYIFISDTGRPFVEMYSEIPEIIHMTEGRELVIPCRVTSPNITVTLKKFPLDTLIPDGKRIIWDSRKGFIISNATYKEIGLLTCEATVNGHLYKTNYLTHRQTNTIIDVQISTPRPVKLLRGHTLVLNCTATTPLNTRVQMTWSYPDEKNKRASVRRRIDQSNSHANIFYSVLTIDKMQNKDKGLYTCRVRSGPSFKSVNTSVHIYDKAFITVKH",80
4,"20 kDa-Cys-Flt-1(3) N196C (receptor, 20 kDa maleimide-PEG on Cys 196) SKLKDPELSLKGTQHIMQAGQTLHLQCRGEAAHKWSLPEMVSKESERLSITKSACGRNGKQFCSTLTLNTAQANHTGFYSCKYLAVPTSKKKETESAIYIFISDTGRPFVEMYSEIPEIIHMTEGRELVIPCRVTSPNITVTLKKFPLDTLIPDGKRIIWDSRKGFIISCATYKEIGLLTCEATVNGHLYKTNYLTHRQTNTIIDVQISTPRPVKLLRGHTLVLNCTATTPLNTRVQMTWSYPDEKNKRASVRRRIDQSNSHANIFYSVLTIDKMQNKDKGLYTCRVRSGPSFKSVNTSVHIYDKAFITVKH",59
5,"20 kDa-Cys-Flt-1(3) N323C (receptor, 20 kDa maleimide-PEG on Cys 323) SKLKDPELSLKGTQHIMQAGQTLHLQCRGEAAHKWSLPEMVSKESERLSITKSACGRNGKQFCSTLTLNTAQANHTGFYSCKYLAVPTSKKKETESAIYIFISDTGRPFVEMYSEIPEIIHMTEGRELVIPCRVTSPNITVTLKKFPLDTLIPDGKRIIWDSRKGFIISNATYKEIGLLTCEATVNGHLYKTNYLTHRQTNTIIDVQISTPRPVKLLRGHTLVLNCTATTPLNTRVQMTWSYPDEKNKRASVRRRIDQSNSHANIFYSVLTIDKMQNKDKGLYTCRVRSGPSFKSVCTSVHIYDKAFITVKH",40
6,Wild type sFlt-1(3) (receptor) SKLKDPELSLKGTQHIMQAGQTLHLQCRGEAAHKWSLPEMVSKESERLSITKSACGRNGKQFCSTLTLNTAQANHTGFYSCKYLAVPTSKKKETESAIYIFISDTGRPFVEMYSEIPEIIHMTEGRELVIPCRVTSPNITVTLKKFPLDTLIPDGKRIIWDSRKGFIISNATYKEIGLLTCEATVNGHLYKTNYLTHRQTNTIIDVQISTPRPVKLLRGHTLVLNCTATTPLNTRVQMTWSYPDEKNKRASVRRRIDQSNSHANIFYSVLTIDKMQNKDKGLYTCRVRSGPSFKSVNTSVHIYDKAFITVKH,36
7,"20 kDa-Cys-Flt-1(3) H338C (receptor, 20 kDa maleimide-PEG on Cys 338) SKLKDPELSLKGTQHIMQAGQTLHLQCRGEAAHKWSLPEMVSKESERLSITKSACGRNGKQFCSTLTLNTAQANHTGFYSCKYLAVPTSKKKETESAIYIFISDTGRPFVEMYSEIPEIIHMTEGRELVIPCRVTSPNITVTLKKFPLDTLIPDGKRIIWDSRKGFIISNATYKEIGLLTCEATVNGHLYKTNYLTHRQTNTIIDVQISTPRPVKLLRGHTLVLNCTATTPLNTRVQMTWSYPDEKNKRASVRRRIDQSNSHANIFYSVLTIDKMQNKDKGLYTCRVRSGPSFKSVNTSVHIYDKAFITVKC",19

# The next lines start with the values.
row,"Ave Ec50's (ng/ml); inhibition of VEGF-stimulated HUVEC proliferation, BrdU Cell Proliferation assay [ng/mL]",Binder
1,76,Wild type sFlt-1(fl) (receptor) SKLKDPELSLKGTQHIMQAGQTLHLQCRGEAAHKWSLPEMVSKESERLSITKSACGRNGKQFCSTLTLNTAQANHTGFYSCKYLAVPTSKKKETESAIYIFISDTGRPFVEMYSEIPEIIHMTEGRELVIPCRVTSPNITVTLKKFPLDTLIPDGKRIIWDSRKGFIISNATYKEIGLLTCEATVNGHLYKTNYLTHRQTNTIIDVQISTPRPVKLLRGHTLVLNCTATTPLNTRVQMTWSYPDEKNKRASVRRRIDQSNSHANIFYSVLTIDKMQNKDKGLYTCRVRSGPSFKSVNTSVHIYDKAFITVKHRKQQVLETVAGKRSYRLSMKVKAFPSPEVVWLKDGLPATEKSARYLTRGYSLIIKDVTEEDAGNYTILLSIKQSNVFKNLTATLIVNVKPQIYEKAVSSFPDPALYPLGSRQILTCTAYGIPQPTIKWFWHPCNHNHSEARCDFCSNNEESFILDADSNMGNRIESITQRMAIIEGKNKMASTLVVADSRISGIYICIASNKVGTVGRNISFYITDVPNGFHVNLEKMPTEGEDLKLSCTVNKFLYRDVTWILLRTVNNRTMHYSISKQKMAITKEHSITLNLTIMNVSLQDSGTYACRARNVYTGEEILQKKEITIR
2,75,"20 kDa-Cys-Flt-1(3) N164C (receptor, 20 kDa maleimide-PEG on Cys 164) SKLKDPELSLKGTQHIMQAGQTLHLQCRGEAAHKWSLPEMVSKESERLSITKSACGRNGKQFCSTLTLNTAQANHTGFYSCKYLAVPTSKKKETESAIYIFISDTGRPFVEMYSEIPEIIHMTEGRELVIPCRVTSPCITVTLKKFPLDTLIPDGKRIIWDSRKGFIISNATYKEIGLLTCEATVNGHLYKTNYLTHRQTNTIIDVQISTPRPVKLLRGHTLVLNCTATTPLNTRVQMTWSYPDEKNKRASVRRRIDQSNSHANIFYSVLTIDKMQNKDKGLYTCRVRSGPSFKSVNTSVHIYDKAFITVKH"
3,60,sFlt-1(3) D31C (receptor) SKLKCPELSLKGTQHIMQAGQTLHLQCRGEAAHKWSLPEMVSKESERLSITKSACGRNGKQFCSTLTLNTAQANHTGFYSCKYLAVPTSKKKETESAIYIFISDTGRPFVEMYSEIPEIIHMTEGRELVIPCRVTSPNITVTLKKFPLDTLIPDGKRIIWDSRKGFIISNATYKEIGLLTCEATVNGHLYKTNYLTHRQTNTIIDVQISTPRPVKLLRGHTLVLNCTATTPLNTRVQMTWSYPDEKNKRASVRRRIDQSNSHANIFYSVLTIDKMQNKDKGLYTCRVRSGPSFKSVNTSVHIYDKAFITVKH
4,55,sFlt-1(3) H338C (receptor) SKLKDPELSLKGTQHIMQAGQTLHLQCRGEAAHKWSLPEMVSKESERLSITKSACGRNGKQFCSTLTLNTAQANHTGFYSCKYLAVPTSKKKETESAIYIFISDTGRPFVEMYSEIPEIIHMTEGRELVIPCRVTSPNITVTLKKFPLDTLIPDGKRIIWDSRKGFIISNATYKEIGLLTCEATVNGHLYKTNYLTHRQTNTIIDVQISTPRPVKLLRGHTLVLNCTATTPLNTRVQMTWSYPDEKNKRASVRRRIDQSNSHANIFYSVLTIDKMQNKDKGLYTCRVRSGPSFKSVNTSVHIYDKAFITVKC
5,66,"20 kDa-Cys-Flt-1(3) N100C (receptor, 20 kDa maleimide-PEG on Cys 100) SKLKDPELSLKGTQHIMQAGQTLHLQCRGEAAHKWSLPEMVSKESERLSITKSACGRNGKQFCSTLTLNTAQACHTGFYSCKYLAVPTSKKKETESAIYIFISDTGRPFVEMYSEIPEIIHMTEGRELVIPCRVTSPNITVTLKKFPLDTLIPDGKRIIWDSRKGFIISNATYKEIGLLTCEATVNGHLYKTNYLTHRQTNTIIDVQISTPRPVKLLRGHTLVLNCTATTPLNTRVQMTWSYPDEKNKRASVRRRIDQSNSHANIFYSVLTIDKMQNKDKGLYTCRVRSGPSFKSVNTSVHIYDKAFITVKH"
6,53,sFlt-1(3) N100C (receptor) SKLKDPELSLKGTQHIMQAGQTLHLQCRGEAAHKWSLPEMVSKESERLSITKSACGRNGKQFCSTLTLNTAQACHTGFYSCKYLAVPTSKKKETESAIYIFISDTGRPFVEMYSEIPEIIHMTEGRELVIPCRVTSPNITVTLKKFPLDTLIPDGKRIIWDSRKGFIISNATYKEIGLLTCEATVNGHLYKTNYLTHRQTNTIIDVQISTPRPVKLLRGHTLVLNCTATTPLNTRVQMTWSYPDEKNKRASVRRRIDQSNSHANIFYSVLTIDKMQNKDKGLYTCRVRSGPSFKSVNTSVHIYDKAFITVKH
7,88,sFlt-1(3) N196C (receptor) SKLKDPELSLKGTQHIMQAGQTLHLQCRGEAAHKWSLPEMVSKESERLSITKSACGRNGKQFCSTLTLNTAQANHTGFYSCKYLAVPTSKKKETESAIYIFISDTGRPFVEMYSEIPEIIHMTEGRELVIPCRVTSPNITVTLKKFPLDTLIPDGKRIIWDSRKGFIISCATYKEIGLLTCEATVNGHLYKTNYLTHRQTNTIIDVQISTPRPVKLLRGHTLVLNCTATTPLNTRVQMTWSYPDEKNKRASVRRRIDQSNSHANIFYSVLTIDKMQNKDKGLYTCRVRSGPSFKSVNTSVHIYDKAFITVKH
8,32,sFlt-1(3) N323C (receptor) SKLKDPELSLKGTQHIMQAGQTLHLQCRGEAAHKWSLPEMVSKESERLSITKSACGRNGKQFCSTLTLNTAQANHTGFYSCKYLAVPTSKKKETESAIYIFISDTGRPFVEMYSEIPEIIHMTEGRELVIPCRVTSPNITVTLKKFPLDTLIPDGKRIIWDSRKGFIISNATYKEIGLLTCEATVNGHLYKTNYLTHRQTNTIIDVQISTPRPVKLLRGHTLVLNCTATTPLNTRVQMTWSYPDEKNKRASVRRRIDQSNSHANIFYSVLTIDKMQNKDKGLYTCRVRSGPSFKSVCTSVHIYDKAFITVKH
